Results from US5739276.
“And” between values parts separate entries of the source, which are not always exact repeats. Identical values can stand only once.

How the values were obtained:
[1] = target: rat brain Na channel (voltage-sensitive sodium channels in rat brain membranes) (rat); assay: binding of 125I-δ-conotoxin TxVIA to rat brain membranes, no competitor
[2] = target: rat brain Ca^2+ channels (ω-conotoxin GVIA binding site in rat brain membranes) (rat); assay: binding of 125I-ω-conotoxin GVIA to rat brain membranes, no competitor
[3] = target: rat brain Na channel (voltage-sensitive sodium channels in rat brain membranes) (rat); assay: competition on rat brain membranes; label (competitor) 125I-δ-conotoxin TxVIA
[4] = target: rat brain Ca^2+ channels (ω-conotoxin GVIA binding site in rat brain membranes) (rat); assay: competition on rat brain membranes; label (competitor) 125I-ω-conotoxin GVIA
[5] = target: ω-conotoxin GVIA binding sites on brain membrane preparations from frogs, chicks and rats

Row | Substance | cpm bound [1] [cpm] | cpm bound [2] [cpm] | cpm bound [3] [cpm] | cpm bound [4] [cpm] | percent of ^125 I-GVIA displaced [5]
1 | ^125 I!δ-conotoxin TxVIA (peptide) | 4890 | – | – | – | –
2 | ^125 I-labeled ω-conotoxin GVIA (from UniProt P01522) (peptide) | – | 4400 | – | – | –
3 | δ-conotoxin PVIA (amidated) (peptide) | – | – | 889 | 4930 | –
4 | δ-conotoxin PVIA (nonamidated) (peptide) | – | – | 848 | 4390 | –
5 | δ-conotoxin TxVIA (peptide) | – | – | 925 | 4720 | –
6 | ω-conotoxin GVIA (from UniProt P01522) (peptide) | – | – | 4710 | 954 | 90% and 98%
